# Assay results taken from paper PMC10198859.
# Starred links: 1 amine or outer side, 2 acyl side, 3 side chain; linkers in the order of their positions; H or OH if unused. No end group written: not given here. *: point of attachment. Suc = O=C(CCC(=O)[*:2])[*:1]; For = O=C*
# Biological target: murine TLR2/TLR6 (mouse (endogenous in RAW 264.7 and P388.D1)) (UniProt Q9QUN7)
# UniProt Q9QUN7, sequence (Q9QUN7 25-784, chain 1 of 2): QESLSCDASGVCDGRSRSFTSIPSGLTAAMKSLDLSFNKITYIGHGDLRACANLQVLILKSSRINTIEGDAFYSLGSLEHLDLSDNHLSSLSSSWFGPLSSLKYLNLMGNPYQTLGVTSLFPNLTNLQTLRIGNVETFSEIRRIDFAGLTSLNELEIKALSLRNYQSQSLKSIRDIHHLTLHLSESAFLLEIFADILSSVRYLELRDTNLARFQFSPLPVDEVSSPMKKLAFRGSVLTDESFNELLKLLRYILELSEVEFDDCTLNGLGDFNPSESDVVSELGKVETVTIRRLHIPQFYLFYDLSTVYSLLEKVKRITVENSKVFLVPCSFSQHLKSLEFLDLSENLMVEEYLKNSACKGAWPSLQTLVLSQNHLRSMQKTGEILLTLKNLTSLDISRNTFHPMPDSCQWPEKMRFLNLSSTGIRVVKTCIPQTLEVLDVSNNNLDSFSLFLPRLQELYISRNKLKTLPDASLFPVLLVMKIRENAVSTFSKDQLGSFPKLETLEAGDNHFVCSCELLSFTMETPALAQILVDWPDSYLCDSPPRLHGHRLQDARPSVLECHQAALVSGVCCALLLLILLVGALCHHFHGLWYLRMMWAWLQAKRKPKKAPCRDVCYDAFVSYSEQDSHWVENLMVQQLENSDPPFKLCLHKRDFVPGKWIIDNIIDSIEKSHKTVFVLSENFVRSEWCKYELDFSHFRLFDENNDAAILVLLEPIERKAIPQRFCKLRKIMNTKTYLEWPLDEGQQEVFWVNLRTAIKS
# UniProt Q9QUN7, sequence (Q9EPW9 28-795, chain 2 of 2, further chain): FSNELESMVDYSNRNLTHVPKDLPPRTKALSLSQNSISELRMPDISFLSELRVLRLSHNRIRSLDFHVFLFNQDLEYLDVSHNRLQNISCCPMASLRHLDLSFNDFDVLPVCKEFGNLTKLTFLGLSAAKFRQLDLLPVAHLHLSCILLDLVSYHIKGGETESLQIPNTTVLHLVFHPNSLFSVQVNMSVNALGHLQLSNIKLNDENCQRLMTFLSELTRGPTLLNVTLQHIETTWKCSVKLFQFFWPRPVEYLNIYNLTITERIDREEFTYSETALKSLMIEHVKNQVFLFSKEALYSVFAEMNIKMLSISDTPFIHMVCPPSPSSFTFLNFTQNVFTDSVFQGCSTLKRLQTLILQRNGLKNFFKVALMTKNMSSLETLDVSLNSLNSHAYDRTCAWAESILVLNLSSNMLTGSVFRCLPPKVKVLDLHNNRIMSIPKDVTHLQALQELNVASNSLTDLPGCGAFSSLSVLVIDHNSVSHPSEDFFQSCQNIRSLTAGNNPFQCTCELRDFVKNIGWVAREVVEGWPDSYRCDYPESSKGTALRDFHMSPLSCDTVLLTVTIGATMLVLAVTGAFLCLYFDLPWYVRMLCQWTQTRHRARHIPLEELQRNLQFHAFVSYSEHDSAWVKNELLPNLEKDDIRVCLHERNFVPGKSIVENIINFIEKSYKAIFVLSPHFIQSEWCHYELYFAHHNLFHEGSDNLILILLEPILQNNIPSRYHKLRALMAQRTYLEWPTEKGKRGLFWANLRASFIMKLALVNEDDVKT
molecule,measurement,value
-fM-BacSp222 (from UniProt A0A0P0C3P7 2-50) (peptide),"TNF in the medium (ELISA) of P388.D1 cells, 1 µM -fM-BacSp222, 6 h, without antagonist",257 pg/mL
For-MAGLLRFLLSKGRALYNWAKSHVGKVWEWLKSGATYEQIKEWIENALGWR [BacSp222 bacteriocin],"TNF in the medium (ELISA) of P388.D1 cells, 1 µM BacSp222, 6 h, without antagonist",252 pg/mL
same,"TNF in the medium (ELISA) of RAW 264.7 cells, 1 µM BacSp222, 6 h, without antagonist",976 pg/mL
For-MAGLLRFLLSKGRALYNWAK(Suc)SHVGKVWEWLKSGATYEQIKEWIENALGWR [suc-K20-BacSp222],"TNF in the medium (ELISA) of P388.D1 cells, 1 µM suc-K20-BacSp222, 6 h, without antagonist",213 pg/mL
same,"TNF in the medium (ELISA) of RAW 264.7 cells, 1 µM suc-K20-BacSp222, 6 h, without antagonist",1280 pg/mL
